B1: Chromodomain-helicase-DNA-binding protein 5, residues 338 to 390; numbered along this chain, Q8TDI0 (parent)
chain: YETDHQDYCEVCQQGGEIILCDTCPRAYHLVCLDPELEKAPEGKWSCPHCEKE
B2: Membrane-associated guanylate kinase, WW and PDZ domain-containing protein 1, residues 352 to 401; numbered along this chain, Q96QZ7 (parent)
chain: TEELDSELELPAGWEKIEDPVYGIYYVDHINRKTQYENPVLEAKRKKQLE

± gives the uncertainty stated by the source.

Variants of B1 are the subject of one data set. Put plainly: abundance fitness (aPCA) (normalised: wild type 0, dead -1); higher = more abundant; growth selection in yeast, the domain comes from the species named. The following applies: Homo sapiens.
Regarding P48H, the abundance fitness was -0.484 ± 0.23.

Consider E17F, for which the abundance fitness was -0.213 ± 0.18. Consider E42A, for which the abundance fitness is -0.113 ± 0.11.

Turning to E42V, the abundance fitness was 0.068 ± 0.11. E42Y: the abundance fitness was -0.076 ± 0.19. Regarding C21T, the abundance fitness was -0.995 ± 0.23.

Consider C21Y, for which the abundance fitness was -0.739 ± 0.17. Same read-out and setting: in the case of C21A it was -0.563 ± 0.14; in that of C21G, -0.853 ± 0.11; in that of V31G, 0.069 ± 0.1. Same read-out and setting: for V31S the value was -0.145 ± 0.12; for I19C, -0.137 ± 0.16. As to E38F, the abundance fitness is -0.053 ± 0.17. Consider C12P, for which the abundance fitness was -0.901 ± 0.13. In the case of C12N, the abundance fitness was -0.318 ± 0.2. As to D34E, the abundance fitness turned out to be 0.266 ± 0.15. Take D34I: the abundance fitness was -0.313 ± 0.24.

D34T: the abundance fitness was -0.195 ± 0.2.

Consider H29W, for which the abundance fitness is -0.822 ± 0.17. On the same count and under the same terms, in the case of P41V it was -0.096 ± 0.12. C50N: the abundance fitness is -0.498 ± 0.2. Consider T23R, for which the abundance fitness was -0.12 ± 0.12. With K52Q, the abundance fitness was -0.482 ± 0.2. Still for that read-out and setting: for Y8C the value was -0.337 ± 0.23. In the case of E2C, the abundance fitness was 0.423 ± 0.28. The same measure, in the same setting: in the case of E2A it was -0.071 ± 0.13; in that of S46I, 0.137 ± 0.24. On the same count and under the same terms, for H49L the value was -0.176 ± 0.2; for H49G, 0.071 ± 0.16.

Turning to K44F, the abundance fitness was -0.259 ± 0.17. Turning to K44R, the abundance fitness came to 0.14 ± 0.099. As for K44E, the abundance fitness came out at 0.031 ± 0.12.

In the case of A27K, the abundance fitness is -0.242 ± 0.21. As to A27D, the abundance fitness was -0.258 ± 0.17. Consider A27Q, for which the abundance fitness was determined as 0.171 ± 0.19.

In the case of D7Y, the abundance fitness was -0.676 ± 0.39. In the case of C24Y, the abundance fitness is -0.784 ± 0.16. On to E53R, for which the abundance fitness was -0.341 ± 0.16.

For the variant E53S, the abundance fitness is -0.548 ± 0.25. Take C32L: the abundance fitness was -0.993 ± 0.14.

As for C32Q, the abundance fitness was -0.982 ± 0.23.

As to V11P, the abundance fitness is 0.061 ± 0.11.

For the variant H5E, the abundance fitness is 0.024 ± 0.13.

For the variant H5P, the abundance fitness is 0.124 ± 0.13. Take H5G: the abundance fitness was determined as 0.185 ± 0.084. For G16E, the abundance fitness is 0.027 ± 0.11. With G16H, the abundance fitness worked out at 0.435 ± 0.22.

In the case of G15R, the abundance fitness was 0.141 ± 0.09.

As to C47G, the abundance fitness is -0.797 ± 0.14. For G43C, the abundance fitness is -0.117 ± 0.12. As to G43H, the abundance fitness came out at 0.166 ± 0.16. Same read-out and setting: in the case of R26D it was -0.296 ± 0.16. With E10M, the abundance fitness is -0.07 ± 0.18. On the same count and under the same terms, in the case of E10C it was -0.001 ± 0.17; in that of E10G, 0.015 ± 0.11; in that of L33C, -0.272 ± 0.16. Take I18R: the abundance fitness stood at 0.021 ± 0.1. As for Q6D, the abundance fitness is -0.199 ± 0.23. The same measure, in the same setting: for L30Y the value was 0.193 ± 0.28.

The variants in the next data set derive from B2. The data set is described as above. As to conditions: Homo sapiens.
Turning to K16M, the abundance fitness was -0.206 ± 0.1. Turning to K16I, the abundance fitness was -0.134 ± 0.13. Still for that read-out and setting: in the case of K16Y it was -0.902 ± 0.18; in that of K16G, -0.561 ± 0.045. In the case of K16H, the abundance fitness is -1.03 ± 0.34.

Consider K16F, for which the abundance fitness is -0.688 ± 0.27. Same read-out and setting: in the case of K16T it was -0.49 ± 0.08; in that of K16Q, -0.2 ± 0.1; in that of K16A, -0.474 ± 0.087. Turning to K16P, the abundance fitness is -1.11 ± 0.43. Still for that read-out and setting: in the case of K16L it was -0.447 ± 0.079; in that of K16D, -0.756 ± 0.17; in that of K16W, -0.802 ± 0.081. The same measure, in the same setting: for K16S the value was -0.445 ± 0.044. For the variant K16V, the abundance fitness is -0.292 ± 0.052. Same read-out and setting: for K16C the value was -0.245 ± 0.042; for K16E, -0.327 ± 0.095.

For the variant L10P, the abundance fitness was -0.385 ± 0.1. In the case of L10R, the abundance fitness was -0.626 ± 0.066. L10V: the abundance fitness was -0.221 ± 0.054.

Consider L10G, for which the abundance fitness was -0.574 ± 0.055. L10W: the abundance fitness is -0.553 ± 0.068. The same measure, in the same setting: for L10A the value was -0.322 ± 0.072.

Take L10E: the abundance fitness was -0.654 ± 0.081. L10S: the abundance fitness was -0.382 ± 0.069. Still for that read-out and setting: in the case of L10D it was -0.705 ± 0.16; in that of L10K, -0.668 ± 0.2.

Take L10Y: the abundance fitness was -0.571 ± 0.23. Consider L10H, for which the abundance fitness was -0.751 ± 0.26. L10I: the abundance fitness is -0.148 ± 0.15. Same read-out and setting: in the case of L10C it was -0.37 ± 0.1; in that of L10N, -0.574 ± 0.099; in that of L10M, -0.286 ± 0.076.

Turning to L10T, the abundance fitness was -0.608 ± 0.096. Take L10F: the abundance fitness was -0.345 ± 0.095.

On to L10Q, for which the abundance fitness was -0.296 ± 0.046. On to D5M, for which the abundance fitness is -0.421 ± 0.11.

D5T: the abundance fitness stood at 0.059 ± 0.053. As to D5H, the abundance fitness was -0.192 ± 0.082. Consider D5W, for which the abundance fitness was -0.303 ± 0.072. With D5V, the abundance fitness amounted to 0.001 ± 0.044. For D5F, the abundance fitness was -0.006 ± 0.17. On the same count and under the same terms, for D5C the value was 0.032 ± 0.062; for D5K, 0.086 ± 0.088. Consider D5A, for which the abundance fitness amounted to 0.047 ± 0.071. For the variant D5Q, the abundance fitness is -0.128 ± 0.05. For D5I, the abundance fitness stood at 0 ± 0.057. The same measure, in the same setting: in the case of D5P it was 0.023 ± 0.071. A12T: the abundance fitness is -0.145 ± 0.086. As to A12Y, the abundance fitness was -0.38 ± 0.11. Turning to A12E, the abundance fitness is 0.129 ± 0.052.

Regarding A12Q, the abundance fitness is -0.237 ± 0.096. As to A12S, the abundance fitness is -0.038 ± 0.054. The same measure, in the same setting: in the case of A12L it was -0.003 ± 0.056.

Consider A12C, for which the abundance fitness came out at 0.12 ± 0.085. As for A12R, the abundance fitness came out at 0.016 ± 0.041. Regarding A12P, the abundance fitness is -0.098 ± 0.073. A12I: the abundance fitness amounted to 0.02 ± 0.072. On to A12W, for which the abundance fitness was -0.104 ± 0.048. As to A12D, the abundance fitness is -0.09 ± 0.12. As to A12K, the abundance fitness was -0.113 ± 0.11.

In the case of A12V, the abundance fitness came out at 0.019 ± 0.068. In the case of A12H, the abundance fitness worked out at 0.07 ± 0.1.

As to A12F, the abundance fitness turned out to be 0.107 ± 0.093. Take A12G: the abundance fitness was -0.073 ± 0.057. In the case of A12M, the abundance fitness is -0.594 ± 0.15. W14T: the abundance fitness is -0.254 ± 0.081.

Take W14Y: the abundance fitness is -0.775 ± 0.24. For W14A, the abundance fitness is -0.686 ± 0.092.

Turning to W14D, the abundance fitness was -0.539 ± 0.12. Take W14R: the abundance fitness was -0.438 ± 0.038.

In the case of W14K, the abundance fitness is -0.45 ± 0.12. With W14E, the abundance fitness was -0.416 ± 0.057. On to W14N, for which the abundance fitness worked out at 0.02 ± 0.13. Turning to W14Q, the abundance fitness was -0.631 ± 0.11. On to W14P, for which the abundance fitness is -0.598 ± 0.046. Take W14F: the abundance fitness is -0.458 ± 0.14. W14C: the abundance fitness is -0.324 ± 0.092. Still for that read-out and setting: in the case of W14L it was -0.897 ± 0.08. As for W14H, the abundance fitness is -0.592 ± 0.079. For the variant W14I, the abundance fitness was 0.071 ± 0.13. Turning to W14S, the abundance fitness is -0.46 ± 0.078. As for W14V, the abundance fitness was -0.5 ± 0.044. As for W14G, the abundance fitness is -0.475 ± 0.048. For the variant E15N, the abundance fitness was -0.449 ± 0.14.

As for E15F, the abundance fitness is -0.764 ± 0.13. Consider E15A, for which the abundance fitness is -0.341 ± 0.057. Regarding E15C, the abundance fitness was -0.794 ± 0.14. With E15R, the abundance fitness was -0.38 ± 0.051. As for E15Y, the abundance fitness was -0.46 ± 0.23. Take E15H: the abundance fitness is -0.393 ± 0.23. For the variant E15Q, the abundance fitness is -0.229 ± 0.086.

Take E15T: the abundance fitness was -0.32 ± 0.085. As for E15M, the abundance fitness was -0.262 ± 0.079. Turning to E15W, the abundance fitness is -0.856 ± 0.056.

Consider E15I, for which the abundance fitness was -0.733 ± 0.18. The same measure, in the same setting: for E15K the value was -0.328 ± 0.1. On the same count and under the same terms, in the case of E15L it was -0.55 ± 0.055.

As for E18C, the abundance fitness is -0.132 ± 0.091.

For E18A, the abundance fitness was -0.014 ± 0.069. Same read-out and setting: in the case of E18D it was -0.15 ± 0.073; in that of E18K, -0.269 ± 0.12. For E18F, the abundance fitness is -0.263 ± 0.067. As for E18I, the abundance fitness was -0.196 ± 0.11. Same read-out and setting: for E18L the value was -0.311 ± 0.062; for E18H, -0.094 ± 0.086. With E18G, the abundance fitness was -0.459 ± 0.047. Same read-out and setting: for S6K the value was -0.148 ± 0.1.

Values taken from the Human Domainome abundance scans (Beltran et al. 2025).
